# Results from US20150268247A1, “Assay for Screening of Anti-Viral Compounds That Inhibit Specific Interaction Interfaces Between Cullin5 and an ElonginB/ElonginC/ CBF-beta/HIV-1 Vif Complex” (UNIVERSITY OF ROCHESTER, priority 2012, published 2015).
# T1: Cul5(N) (Homo sapiens, UniProt Q93034, L345D/V341R)
# T1 construct: GST with 3C protease site (N, cleaved yes); made in house; host or cells: E. coli BL21(DE3), as for VifC/EloB/C
# T1 sequence (Q93034 with tags, fused parts or gaps V341R/L345D): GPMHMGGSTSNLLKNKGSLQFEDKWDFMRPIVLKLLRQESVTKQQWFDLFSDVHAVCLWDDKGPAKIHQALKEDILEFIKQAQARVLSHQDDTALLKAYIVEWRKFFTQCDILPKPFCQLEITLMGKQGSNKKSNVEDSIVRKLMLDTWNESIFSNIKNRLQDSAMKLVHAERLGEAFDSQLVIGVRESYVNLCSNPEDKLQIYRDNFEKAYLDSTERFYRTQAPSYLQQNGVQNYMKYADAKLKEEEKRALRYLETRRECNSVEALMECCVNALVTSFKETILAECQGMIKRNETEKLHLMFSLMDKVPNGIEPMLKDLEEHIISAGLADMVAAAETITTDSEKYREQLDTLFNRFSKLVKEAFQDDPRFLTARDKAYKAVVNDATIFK
# B1: CBFβ: Recombinant human core-binding factor β subunit isoform 2 (protein, listed as Homo sapiens)
# chain: MGHHHHHHLEVLFQGPPRVVPDQRSKFENEEFFRKLSRECEIKYTGFRDRPHEERQARFQNACRDGRSEIAFVATGTNLSLQFFPASWQGEQRQTPSREYVDLEREAGKVYLKAPMILNGVCVIWKGWIDLQRLDGMGCLEFDEERAQQEDALAQQAFEEARRRTREFEDRDRSHREEMEVRVSQLLAVTGKKTTRP
# Target: T1, Cul5(N)
# Experiment: ITC titration of Cul5(N) to CBFβ alone
# Format: binding
# Conditions: FIG. 4D
# Method: ITC experiments were conducted with a VP-ITC isothermal titration calorimeter (GE Healthcare) at temperatures ranging from 293.15 to 308.15 K using a reference power of 15 μcal s^−1 and a 307 rpm stirring rate. Purified protein was dialyzed for 8 h at 4° C. against 1300 volumes of ITC buffer A [0.125 M NaCl, 0.02 M HEPES (pH 7.4), 0.0002 M TCEP] or ITC buffer B [0.125 M NaCl, 0.02 M phosphate (pH 7.4), 0.0002 M TCEP]. Twenty-nine 10 μl aliquots of protein in the syringe were injected into the sample cell at time intervals ranging from 240 to 360 s. The concentration of protein in the syringe ranged from 120 to 210 μM, while the concentration of protein in the sample cell ranged from 12 to 27 μM. Errors in the thermodynamic parameters were obtained from the standard deviation resulting from average values with at least two replicates. […] As such, for all protein-into-protein experiments, the heats of injection were accounted for by subtracting the average heat of the last three injections from each data point of an experiment. All data were fit with the “One Set of Sites” curve-fitting model to determine the parameters Ka, n, and AH using the Origin software v7.0 (GE Healthcare). ΔG was calculated from ΔG=−RT ln Ka, where R=1.9872 cal K^−1 mol^−1, and T=absolute temperature (Kelvin). ΔS was calculated from the equation, ΔG=ΔH−TΔS.
molecule,measurement,value
B1,interaction of CBFβ with Cul5(N) alone,did not interact
